Results taken from patent US20220017635A1 (Kyowa Kirin, published 2022).

Tests used:
chimeric TfR A14 [1] = target: T1, chimeric TfR A14 (human/mouse chimera, UniProt P02786 89-760); assay: ELISA on immobilized chimeric TfR; grade = binding relative to His-huTfR (++ 0.5 or more, + 0.2 to less than 0.5)
T1 construct: also called D204Q-K205S-E369Q
Description: (§1) ELISA was carried out by the following method. To a 96-well immunoplate (NUNC, Inc.) on which an antigen protein was immobilized, 1% (w/v) BSA-PBS(−) pH 7.0 without KCl (hereinafter referred to as blocking solution, Nacalai Tesque, Inc.) was added to perform blocking at room temperature, and thereafter, the anti-TfR antibody diluted with the same solution was added thereto and a reaction was allowed to proceed at room temperature for 1 hour. Thereafter, washing was performed with 0.05% (w/v)-tPBS (1×) without KCl (pH 7.2) (hereinafter referred to as washing solution, Nacalai Tesque, Inc.), Anti-Human IgG (Fc) Goat IgG Fab″-HRP (IBL, Inc.) diluted with the blocking solution was added thereto, and a reaction was allowed to proceed at room temperature for 1 hour. Thereafter, washing was performed with the washing solution, and 1-Step (registered trademark) Ultra TMB-ELISA Substrate Solution (Thermo, Inc.) was added thereto, and a reaction was allowed to proceed at room temperature. The coloring reaction was stopped by adding a 5 N HCl solution, and an absorbance at a wavelength of 450 nm (reference wavelength: 570 nm) was measured using a plate reader (EPOCH 2: BioTek Instruments, Inc.).
(§2) Further, a value obtained by subtracting the absorbance at the reference wavelength of 570 nm from the absorbance at a wavelength of 450 nm was regarded as the binding activity to any of various types of antigen proteins, and a case where a value obtained by dividing the binding activity to any of various types of chimeric TfR by the binding activity to His-huTfR was 0.5 or more was denoted by ++, a case where the value was 0.2 or more and less than 0.5 was denoted by +, and a case where the value was less than 0.2 was denoted by −.

chimeric TfR A07 [2] = target: T2, chimeric TfR A07 (human/mouse chimera, UniProt P02786 89-760); assay: as above
T2 construct: also called M365L-V366E-E369Q
Description: as §1, §2

chimeric TfR A05 [3] = target: T3, chimeric TfR A05 (human/mouse chimera, UniProt P02786 89-760); assay: as above
T3 construct: also called P249S-L274F
Description: as §1, §2

chimeric TfR A04 = target: T4, chimeric TfR A04 (human/mouse chimera, UniProt P02786 89-760); assay: as above
T4 construct: also called D245E-K261E-D356R
Description: as §1, §2

chimeric TfR A03 = target: T5, chimeric TfR A03 (human/mouse chimera, UniProt P02786 89-760); assay: as above
T5 construct: also called D245E-K261E
Description: as §1, §2

chimeric TfR A02 [4] = target: T6, chimeric TfR A02 (human/mouse chimera, UniProt P02786 89-760); assay: as above
T6 construct: also called D352S-S355A-D356R-K358N
T6 chain: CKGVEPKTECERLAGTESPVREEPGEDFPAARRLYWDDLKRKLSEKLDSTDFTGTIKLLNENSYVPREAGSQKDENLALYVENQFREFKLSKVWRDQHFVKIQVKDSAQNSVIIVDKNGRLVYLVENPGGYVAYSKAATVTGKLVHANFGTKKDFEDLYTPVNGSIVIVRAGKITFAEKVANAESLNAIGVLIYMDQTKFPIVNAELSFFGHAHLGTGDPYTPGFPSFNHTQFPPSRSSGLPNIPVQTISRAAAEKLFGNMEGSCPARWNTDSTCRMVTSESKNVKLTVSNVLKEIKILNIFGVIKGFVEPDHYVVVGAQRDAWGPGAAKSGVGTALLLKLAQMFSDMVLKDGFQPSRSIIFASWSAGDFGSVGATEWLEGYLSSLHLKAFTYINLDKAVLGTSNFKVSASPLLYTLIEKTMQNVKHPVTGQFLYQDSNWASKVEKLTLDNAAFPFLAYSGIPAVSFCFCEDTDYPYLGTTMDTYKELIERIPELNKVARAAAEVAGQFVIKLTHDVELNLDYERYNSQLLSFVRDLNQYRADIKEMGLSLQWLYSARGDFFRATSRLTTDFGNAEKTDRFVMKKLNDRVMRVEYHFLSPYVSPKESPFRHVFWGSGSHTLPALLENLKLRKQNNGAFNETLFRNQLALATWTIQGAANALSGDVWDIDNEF
Description: as §1, §2

[5] = target: T7, huTfR with mouse apical domain (human/mouse chimera, UniProt P02786 89-760); assay: as above
T7 construct: His tag added; also called chimeric protein of human TfR extracellular domain with mouse apical domain
T7 chain: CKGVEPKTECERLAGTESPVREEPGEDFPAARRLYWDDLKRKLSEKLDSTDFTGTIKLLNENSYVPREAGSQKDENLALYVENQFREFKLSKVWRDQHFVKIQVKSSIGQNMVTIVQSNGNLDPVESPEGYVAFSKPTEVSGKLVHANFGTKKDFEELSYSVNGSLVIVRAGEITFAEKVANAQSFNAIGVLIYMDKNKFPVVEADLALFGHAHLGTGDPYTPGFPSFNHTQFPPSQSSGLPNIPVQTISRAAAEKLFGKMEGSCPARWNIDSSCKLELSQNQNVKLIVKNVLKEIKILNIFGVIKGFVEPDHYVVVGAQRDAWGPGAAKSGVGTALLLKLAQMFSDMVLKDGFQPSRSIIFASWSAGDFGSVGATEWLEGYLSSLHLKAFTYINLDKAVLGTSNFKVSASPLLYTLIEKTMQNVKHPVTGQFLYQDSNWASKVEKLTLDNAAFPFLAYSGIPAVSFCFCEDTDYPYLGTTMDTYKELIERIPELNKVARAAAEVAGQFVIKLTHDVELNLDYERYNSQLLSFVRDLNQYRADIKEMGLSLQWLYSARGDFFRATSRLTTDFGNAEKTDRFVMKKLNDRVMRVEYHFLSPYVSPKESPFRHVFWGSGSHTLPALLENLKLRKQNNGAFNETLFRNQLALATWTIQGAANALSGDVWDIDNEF
Description: as §1, §2

[6] = target: T8, huTfR with mouse protease-like domain (human/mouse chimera); assay: ELISA on immobilized chimeric TfR
T8 construct: His tag added; also called chimeric protein of human TfR extracellular domain with mouse protease-like domain
T8 chain: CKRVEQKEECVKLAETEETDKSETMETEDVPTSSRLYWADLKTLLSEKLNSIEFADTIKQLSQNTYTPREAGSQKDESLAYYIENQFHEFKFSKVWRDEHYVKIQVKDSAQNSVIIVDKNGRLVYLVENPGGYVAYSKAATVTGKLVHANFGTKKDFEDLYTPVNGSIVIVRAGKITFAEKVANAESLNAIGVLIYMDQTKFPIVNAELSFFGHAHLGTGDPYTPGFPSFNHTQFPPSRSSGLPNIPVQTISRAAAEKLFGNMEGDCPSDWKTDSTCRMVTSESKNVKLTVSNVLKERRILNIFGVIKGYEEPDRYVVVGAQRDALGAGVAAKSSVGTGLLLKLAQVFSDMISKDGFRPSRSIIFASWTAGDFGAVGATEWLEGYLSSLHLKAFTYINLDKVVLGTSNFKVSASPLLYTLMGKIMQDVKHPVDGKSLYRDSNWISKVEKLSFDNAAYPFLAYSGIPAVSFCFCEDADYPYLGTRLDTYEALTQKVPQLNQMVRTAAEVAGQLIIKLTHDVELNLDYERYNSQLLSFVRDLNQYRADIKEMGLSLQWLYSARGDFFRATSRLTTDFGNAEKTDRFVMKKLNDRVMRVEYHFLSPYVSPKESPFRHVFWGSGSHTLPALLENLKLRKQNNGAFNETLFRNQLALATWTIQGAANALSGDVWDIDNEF
Description: as §1, §2

mouse TfR on CHO cells = target: T9, mouse TfR on CHO cells (mouse, UniProt Q62351 1-763); assay: flow cytometry on mouse TfR/CHO cells
T9 construct: also called mouse TfR/CHO
Description: Subsequently, an epitope analysis for various types of TfR antibodies was carried out.

[7] = target: T8, huTfR with mouse protease-like domain; assay: ELISA on immobilized chimeric TfR; grade = binding relative to His-huTfR (++ 0.5 or more, + 0.2 to less than 0.5)
Description: as §1, §2

chimeric TfR A05 [8] = target: T3, chimeric TfR A05; assay: ELISA on immobilized chimeric TfR
Description: as §1, §2

[9] = target: T7, huTfR with mouse apical domain; assay: ELISA on immobilized chimeric TfR
Description: as §1, §2

chimeric TfR A14 [10] = target: T1, chimeric TfR A14; assay: ELISA on immobilized chimeric TfR
Description: as §1, §2

chimeric TfR A07 [11] = target: T2, chimeric TfR A07; assay: ELISA on immobilized chimeric TfR
Description: as §1, §2

chimeric TfR A02 [12] = target: T6, chimeric TfR A02; assay: ELISA on immobilized chimeric TfR
Description: as §1, §2

monkey TfR on CHO cells = target: T10, monkey TfR on CHO cells (monkey); assay: flow cytometry of monoclonal phage (scFv) on monkey TfR/CHO cells
T10 construct: also called monkey TfR/CHO cells
T10 chain: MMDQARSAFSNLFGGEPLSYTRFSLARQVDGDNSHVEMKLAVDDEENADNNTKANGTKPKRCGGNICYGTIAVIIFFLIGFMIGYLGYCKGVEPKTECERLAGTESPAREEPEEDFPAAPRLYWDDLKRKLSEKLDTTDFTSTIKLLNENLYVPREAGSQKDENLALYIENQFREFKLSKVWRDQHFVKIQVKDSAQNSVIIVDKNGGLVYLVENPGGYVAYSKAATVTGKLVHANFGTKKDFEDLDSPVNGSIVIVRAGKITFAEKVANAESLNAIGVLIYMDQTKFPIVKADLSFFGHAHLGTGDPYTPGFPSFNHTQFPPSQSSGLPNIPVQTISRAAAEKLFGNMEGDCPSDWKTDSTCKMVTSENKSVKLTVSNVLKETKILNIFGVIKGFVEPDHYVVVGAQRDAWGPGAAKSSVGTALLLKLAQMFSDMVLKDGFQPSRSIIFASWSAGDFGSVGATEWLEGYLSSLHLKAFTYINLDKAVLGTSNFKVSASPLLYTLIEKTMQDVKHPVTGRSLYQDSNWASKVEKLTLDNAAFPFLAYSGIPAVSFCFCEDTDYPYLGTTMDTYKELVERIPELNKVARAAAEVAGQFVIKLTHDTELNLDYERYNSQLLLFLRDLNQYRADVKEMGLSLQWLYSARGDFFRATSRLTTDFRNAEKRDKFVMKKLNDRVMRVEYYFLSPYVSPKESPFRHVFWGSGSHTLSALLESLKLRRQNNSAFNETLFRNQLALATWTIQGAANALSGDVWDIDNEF
Description: After the reaction was allowed to proceed under 4° C. for 30 minutes, each well was washed 3 times with PBS-T.

B1: 2230 (antibody, V domains shown)
VH: QVQLQESGPGLVKPSETLSLTCTVSGGSISSYYWSWIRQPPGKGLEWIGYIYYSGSTNYNPSLKSRVTISLDTSKNQFSLRLSSVTTADTALYYCTREAGYYDSSGYYGFDYWGQGTLVTVSS
VL: DIQMTQSPSSLSASVGDRVTITCRASQGISSWLAWYQQKPEKAPKSLIYAASSLQSGVPSRFSGSGSGTDFTLTISSLQPEDFATYFCQQYYNYPYTFGQGTKLEIK
notes: From a hybridoma; light chain other than A27; also called clone 2230; anti-TfR antibody 2230
- ratio of ELISA binding activity (A450-A570) to chimeric TfR over that to His-huTfR (chimeric TfR A14 [1]): ≥ 0.5 ratio
- ratio of ELISA binding activity (A450-A570) to chimeric TfR over that to His-huTfR (chimeric TfR A07 [2]): ≥ 0.5 ratio
- ratio of ELISA binding activity (A450-A570) to chimeric TfR over that to His-huTfR (chimeric TfR A05 [3]): ≥ 0.5 ratio
- ratio of ELISA binding activity (A450-A570) to chimeric TfR over that to His-huTfR (chimeric TfR A04): ≥ 0.5 ratio
- ratio of ELISA binding activity (A450-A570) to chimeric TfR over that to His-huTfR (chimeric TfR A03): ≥ 0.5 ratio
- ratio of ELISA binding activity (A450-A570) to chimeric TfR over that to His-huTfR (chimeric TfR A02 [4]): ≥ 0.5 ratio
- ratio of ELISA binding activity (A450-A570) to chimeric TfR over that to His-huTfR [5]: ≥ 0.5 ratio
- ratio of ELISA binding activity (A450-A570) to chimeric TfR over that to His-huTfR [6]: < 0.2 ratio
- binding result (mouse TfR on CHO cells): no binding

B2: T14 (antibody, V domains shown)
VH: EVQLVESGGGLVQPGGSLRLSCVVSGGTFSNFNMNWVRQAPGKGLEWVSYISGSSSTIYYADSVKGRFTISRDNAKNSLYLQMNSLRDEDTAVYYCVSSSWYYWGQGTLVTVSS
VL: not shown
notes: IgG4PE or IgG4PE R409K constant region; also called anti-TfR antibody T14
- ratio of ELISA binding activity (A450-A570) to chimeric TfR over that to His-huTfR (chimeric TfR A14 [1]): ≥ 0.5 ratio
- ratio of ELISA binding activity (A450-A570) to chimeric TfR over that to His-huTfR (chimeric TfR A07 [2]): ≥ 0.5 ratio
- ratio of ELISA binding activity (A450-A570) to chimeric TfR over that to His-huTfR (chimeric TfR A04): 0.2 to 0.5 ratio
- ratio of ELISA binding activity (A450-A570) to chimeric TfR over that to His-huTfR (chimeric TfR A03): ≥ 0.5 ratio
- ratio of ELISA binding activity (A450-A570) to chimeric TfR over that to His-huTfR (chimeric TfR A02 [4]): ≥ 0.5 ratio
- ratio of ELISA binding activity (A450-A570) to chimeric TfR over that to His-huTfR [7]: ≥ 0.5 ratio
- ratio of ELISA binding activity (A450-A570) to chimeric TfR over that to His-huTfR (chimeric TfR A05 [8]): < 0.2 ratio
- ratio of ELISA binding activity (A450-A570) to chimeric TfR over that to His-huTfR [9]: < 0.2 ratio

B3: cyno186 (antibody, V domains shown)
VH: QVQLVESGGEFVQPGGSLRLSCAASGFPFKGYAMNWVRQAPGKGLEWVSRISNGGSYIDYADSVKGRFTISRDNSKNTLYLQIDSLRTEDTAVYYCAKAKDAYRWNNAIDEWGQGTLVTVSS
VL: not shown
notes: also called anti-TfR antibody cyno186
- ratio of ELISA binding activity (A450-A570) to chimeric TfR over that to His-huTfR (chimeric TfR A05 [3]): ≥ 0.5 ratio
- ratio of ELISA binding activity (A450-A570) to chimeric TfR over that to His-huTfR (chimeric TfR A04): 0.2 to 0.5 ratio
- ratio of ELISA binding activity (A450-A570) to chimeric TfR over that to His-huTfR (chimeric TfR A03): ≥ 0.5 ratio
- ratio of ELISA binding activity (A450-A570) to chimeric TfR over that to His-huTfR [7]: ≥ 0.5 ratio
- ratio of ELISA binding activity (A450-A570) to chimeric TfR over that to His-huTfR (chimeric TfR A14 [10]): < 0.2 ratio
- ratio of ELISA binding activity (A450-A570) to chimeric TfR over that to His-huTfR (chimeric TfR A07 [11]): < 0.2 ratio
- ratio of ELISA binding activity (A450-A570) to chimeric TfR over that to His-huTfR (chimeric TfR A02 [12]): < 0.2 ratio
- ratio of ELISA binding activity (A450-A570) to chimeric TfR over that to His-huTfR [9]: < 0.2 ratio
- binding result (monkey TfR on CHO cells): binds
- binding result (mouse TfR on CHO cells): no binding
